Data as given in patent publication US7871610B2, “Antibodies to Tie1 ectodomain” (Dyax Corp., priority 2003, dated 2011).

How the values were obtained:
Tie1 = Tie1 (Homo sapiens, UniProt P35590); experiment: Tie1 phosphorylation assay in HDMVECs; type: cell-based
Protocol: COS1 cells were transfected with pcDNA3-Tie1-V5. After 24 h of transfection, the cells were serum starved for 8 h and then treated with E3 IgG. For the Tie1 phosphorylation assay, HDMVECs were cultured on 10 cm dishes to near confluence, starved (8-16 h) in serum free medium and stimulated as indicated. After the stimulations, the cells were lysed in lysis buffer (RIPA-DOC: 50 mM Tris-HCl pH 8.0, 150 mM NaCl, 1% Triton-X-100, 0.1% SDS, 0.5% DOC, 10 mM EDTA, supplemented with aprotinin, leupeptin, PMSF and sodium vanadate). Clarified lysates from transfected COS1 cells or HDMVECs were immunoprecipitated with anti-V5 or anti-Tie1 B9, respectively. Proteins were separated by SDS-PAGE, transferred to nitrocellulose and immunoblotted using the anti-phosphotyrosine and anti-Tie1 (R&D systems) antibodies.
To test if the E3 IgG binding to the extracellular region of Tie1 induces autophosphorylation of Tie1, the Tie1 receptor phosphorylation level in response to E3 IgG treatment was studied in transiently transfected COS1 cells and human primary endothelial cells. COS1 cells were transfected with an expression vector containing a V5-tagged full length Tie1 cDNA, and, after serum starvation, the cells were treated with E3 IgG (200 ng/ml). Cell lysates were extracted at several time points and Tie1 was immunoprecipitated with anti-V5 followed by western blotting using anti-phosphotyrosine and anti-Tie1 antibodies. […] To determine if E3 IgG induces Tie1 phosphorylation in primary endothelial cells, HDMVEC cells were serum starved and stimulated with several concentrations of E3 for 60 min. […] Also higher concentrations of E3 (500-1000 ng/ml) induced Tie1 phosphorylation but the response was more rapid and was most prominent after 5 min of stimulation.
To study the kinetics of E3 IgG induced Tie1 activation, cells were stimulated with E3 IgG (200 ng/ml) and receptor phosphorylation was studied at various time points. Tie1 phosphorylation was highest 15-30 min after E3 IgG treatment but phosphorylation persisted for up to 1 h.

HUVEC = experiment: Tube formation assay with HUVEC in collagen gel; type: cell-based, human; settings: collagen I gel; E3 active even at 10 ng/ml (tested 1 ng/ml to 10 μg/ml); E3b-IgG1 tested 1 pg/ml to 10 ng/ml
Protocol: Human Umbilical vein endothelial cells (HUVEC) were obtained by treating fresh human umbilical cord veins with Trypsin-EDTA (1×) (Gibco/Invitrogen) for 20-25 minutes at 37° C. The cells were cultured in a T-25 flask coated with attachment factor (AF), (Cascade Biologics) in RPMI 1640 medium supplemented with 10% FCS, 0.4% BBE, 1% 1-glutamin, 1% penicillin/streptomycin. Primary cultures were detached with warm Trypsin-EDTA and used when confluent at the second or third passage. The cells were maintained in a proliferative state by culturing them in a split ratio 1:2 at an approximate density of the monolayer of about 60-80%. […]
After 2 passages HUVECs were seeded in their culture medium (40.10^3/50 μl/well of a 96-well plate) on a collagen gel (50 μl of collagen I 1.5 mg/ml) prepared by mixing 7.5 volumes of 2 mg/ml collagen (Collagen R; Serva, Heidelberg, Germany), 1 volume of 10×MEM, 1.5 volume of NaHCO3 (15.6 mg/ml) and ˜1 volume of NaOH to adjust the pH to 7.4. […] The total length of the tube network on the culture surface was quantified at ×40 magnification by the METAVUE™ Software (Universal Imaging Corporation). Results from triplicate wells were expressed as mean vessel area per field ±SEM (relative units). […]
Germlined E3 and its parental antibody were evaluated in the tube formation assay in a collagen type-I matrix. […]

Tie1, sequence (P35590 22-1138): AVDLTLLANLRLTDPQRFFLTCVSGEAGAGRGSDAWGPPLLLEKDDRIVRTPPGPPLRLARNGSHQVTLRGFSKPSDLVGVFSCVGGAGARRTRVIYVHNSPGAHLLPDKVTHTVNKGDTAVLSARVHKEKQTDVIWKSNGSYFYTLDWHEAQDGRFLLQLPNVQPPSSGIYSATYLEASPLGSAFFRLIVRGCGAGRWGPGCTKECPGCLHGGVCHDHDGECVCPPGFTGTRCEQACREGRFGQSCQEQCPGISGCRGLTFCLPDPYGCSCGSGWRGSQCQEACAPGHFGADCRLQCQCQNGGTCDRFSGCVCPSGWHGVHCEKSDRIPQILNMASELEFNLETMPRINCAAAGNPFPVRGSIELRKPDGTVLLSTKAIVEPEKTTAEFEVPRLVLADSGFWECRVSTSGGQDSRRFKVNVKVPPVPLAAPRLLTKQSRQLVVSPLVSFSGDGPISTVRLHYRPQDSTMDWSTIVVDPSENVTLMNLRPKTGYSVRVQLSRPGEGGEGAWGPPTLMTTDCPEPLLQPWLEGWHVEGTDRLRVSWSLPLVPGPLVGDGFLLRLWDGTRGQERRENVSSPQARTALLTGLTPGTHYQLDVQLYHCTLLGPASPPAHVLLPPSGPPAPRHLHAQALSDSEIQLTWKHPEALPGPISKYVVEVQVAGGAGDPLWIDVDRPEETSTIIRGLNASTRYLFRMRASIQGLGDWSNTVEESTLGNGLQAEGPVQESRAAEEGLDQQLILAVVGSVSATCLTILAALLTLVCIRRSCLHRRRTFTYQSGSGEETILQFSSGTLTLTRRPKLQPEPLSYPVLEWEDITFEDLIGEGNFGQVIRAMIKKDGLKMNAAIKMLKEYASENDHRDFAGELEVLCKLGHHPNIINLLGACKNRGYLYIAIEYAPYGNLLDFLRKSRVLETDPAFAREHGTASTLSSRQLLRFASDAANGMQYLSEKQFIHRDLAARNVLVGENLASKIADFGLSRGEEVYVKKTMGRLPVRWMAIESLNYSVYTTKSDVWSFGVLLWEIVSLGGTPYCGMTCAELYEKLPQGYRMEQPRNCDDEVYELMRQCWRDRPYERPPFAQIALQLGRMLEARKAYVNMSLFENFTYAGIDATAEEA

B1: E3: human anti-Tie1 antibody from Fab phage library; HC SEQ ID NO:114, LC SEQ ID NO:116 (antibody, V domains shown)
VH: EVQLLESGGGLVQPGGSLRLSCAASGFTFSMYGMVWVRQAPGKGLEWVSVISPSGGNTGYADSVKGRFTISRDNSKNTLYLQVNSLRAEDTAVYYCARAPRGYSYGYYYWGQGTLVTVSSASTKGPSVFPLAPSSKSTSGG
VL: DIQMTQSPLSLSASVGDRVTITCRASQGIGHYLAWYQQKPGKVPKLLIYTASTLQSGVPSRFSGSGSGTDFTLTINSLQPEDVATYYCQQFNSYPHTFGQGTRLDIK
modifications: Synthetically generated peptide
- persistence of Tie1 phosphorylation (Tie1; E3 IgG 200 ng/ml): up to 1 h
- time of highest Tie1 phosphorylation (Tie1; E3 IgG 200 ng/ml): 15 to 30 min
- time of most prominent Tie1 phosphorylation (Tie1; HDMVEC, E3 500-1000 ng/ml): 5 min
- concentration showing Tie1 receptor phosphorylation (Tie1; HDMVEC, serum starved, stimulated 60 min): 50 to 200 ng/mL
- higher concentrations inducing Tie1 phosphorylation (Tie1; HDMVEC, response more rapid): 500 to 1000 ng/mL
- tube formation by HUVECs (HUVEC): potent inhibitor of tube formation
